Results from the Human Domainome abundance scans (Beltran et al. 2025).

B1: Intersectin-2, residues 1129 to 1183; numbered along this chain, Q9NZM3 (parent)
chain: VCQVIAMYDYAANNEDELSFSKGQLINVMNKDDPDWWQGEINGVTGLFPSNYVKM
B2: Homeobox protein SIX6, residues 134 to 184; numbered along this chain, O95475 (parent)
chain: CFKERTRHLLREWYLQDPYPNPSKKRELAQATGLTPTQVGNWFKNRRQRDR

Variants of: B1
Test: abundance fitness (aPCA) (normalised: wild type 0, dead -1); higher = more abundant; growth selection in yeast, the domain comes from the species named
Conditions: Homo sapiens

Abundance fitness of substitutions, site by site:
G23: W -0.201
Q38: V -0.033
T45: V -0.092
K54: T 0.014
N14: P -0.535
G39: C -0.995
E40: H -0.08; C -0.037
N30: G -0.04
I5: C -0.077
S50: W -0.399
A6: S -0.057; L -1.02
K22: M -0.118
M29: T 0.014
V1: S -0.21; P -0.652
V4: A -0.027
N51: D -0.005
D32: K -0.007; M -0.043; L -0.11; A -0.042
E17: A -0.174
L47: Y -0.04
Y8: C -0.011
L18: C -0.378; Q -0.704
N13: M -0.014
F48: K -1
S19: M -0.21; H -0.123; F -0.256
P49: I -0.49; D -0.482
N42: V -0.1; G -0.042; H 0
E15: F -0.12

Variants of: B2
Test: as above
Conditions: Homo sapiens

Abundance fitness of substitutions, site by site:
Q38: T -0.676; H -0.878; S -0.841; W -0.742; D -0.626; G -0.728; L -0.826; E -0.301; I -0.702; N -0.467; C -0.798; M -0.442; P -0.9; R -0.868; V -0.87; F -0.741; A -0.269; K -0.608; Y -0.77
P36: Y 0.372; R -0.603; D -0.357; C -0.527; E 0.065; K -0.33; H -0.553; W -0.328; F 0.217; N -0.542; A -0.225; G -0.664; S -0.177; T -0.125; I -0.107; L -0.079; V -0.17; Q -0.246
R49: N -0.287; D -0.074; E 0.049; T -0.213; G -0.357; W -0.594; F -0.238; I -0.482; M -0.489; V -0.503; H -0.889; S -0.334; Q 0.143; A -0.278; L -0.277; K -0.203; C -0.376
G40: V -0.605; R 0.127; W -0.467; A 0.01; D -0.503; H -0.159; C -0.279; K 0.335; P -0.783; T -0.175; Q -0.245; L -0.615; N -0.579; S 0.152; M -0.533; F 0.225; E -0.032
W42: S -0.898; P -0.983; R -0.762; A -1.05; Q -0.726; F -0.649; L -0.743; V -0.931; G -0.851; M -0.881; E -0.683; T -0.581; K -0.952; D -0.769
T35: I -0.885; H -0.749; M -0.703; Y -0.953; L -0.733; P -0.877; S -0.128; E -0.399; Q -0.809; C -0.979; F -0.773; W -0.822; G -0.886; A -0.846; R -0.813; N -0.581; D -0.663
V39: A -0.9; E -0.906; T -0.99; G -0.976; L -0.769; W -0.896; R -0.882; I -0.096; Q -0.455; D -0.953; K -0.556; S -0.934; P -0.999; Y -0.646; M -0.944
R46: Q 0.11; T -0.055; L -0.604; C -0.203; V -0.465; N -0.037; H -0.72; A -0.17; K -0.151; Y -0.505; I -0.845; F -0.522; S -0.165; M -0.344; W -0.501; E 0.062; D -0.728
K44: E -0.009; L -0.525; P -0.957; D -0.57; G -0.68; C -0.361; Q -0.271; M -0.204; W -0.634; F -0.438; T -0.398; V -0.543; S -0.282; R -0.112; I -0.37; A -0.195; Y -0.604
R51: M -0.499; C -0.691; S -0.646; V -0.545; E -0.094; A -0.353; T -0.529; L -0.431; W -0.832; K -0.133; D -0.25
L34: Q -0.731; N -0.826; Y -0.587; R -0.719; S -0.707; V -0.861; P -0.747; T -0.669; M -0.044; W -0.548; K -0.722
Q48: Y 0.226; K 0.266; M -0.169; D -0.221; R 0.515; N 0.04; V -0.315; G -0.237; P -0.795; S -0.092; H 0.11; T -0.411; W -0.079; C -0.125; L -0.522; F -0.526; I -0.035; A -0.315
F43: T -0.927; S -0.872; C -0.893; R -0.92; H -0.858; A -1.01; M -0.94; E -0.821; D -0.775; N -0.882; I -0.649; L -0.904; G -0.577; Y -1.13; W -0.926; K -0.881
T37: L -0.197; A -0.005; F -0.28; Q 0.026; M -0.249; C -0.109; Y -0.236; S -0.043; I -0.1; V -0.076; H -0.049; D 0.026; R 0.084; K 0.568; N -0.169; E 0.018; P -0.673; W -0.545; G -0.133
N41: A -0.511; Y -0.995; R 0.155; G -0.627; I -0.642; E -0.121; S -0.342; W -0.754; V -0.269; Q -0.124; K 0.351; C -0.158; L -0.278; P -1; H -0.392; T -0.259; M -0.38
R47: F -0.501; K -0.861; T -0.825; Y -0.637; S -0.845; G -0.762; I -1.01; D -0.84; V -0.756; N -0.613; W -0.425; M -0.786; L -0.633; A -0.635; C -0.662; H -0.762
D50: M -0.417; G -0.607; Q -0.189; P -0.862; L -1.1; R -0.777; T -0.153; C -0.73; F -0.585; A -0.383; Y -0.878; I -0.995; W -0.592; E -0.26; N -0.693; V -0.881; K -0.474; H -0.605; S -0.312
N45: Q -0.303; G -0.481; M -0.386; A -0.378; R -0.062; W -0.535; V -0.612; L -0.401; H -0.123; C -0.39; D -0.261; F -0.712; S -0.42; K -0.13; I -0.394; E -0.266; T -0.423
